The results in this text go back to patent US20210246166A1 (Bayer, published 2021).

The target of the test is T1, recombinant rat MASP1 active protease (amino acids 302-704, C-terminal His Tag) (rat, UniProt Q8CHN8 302-704).
T1 sequence: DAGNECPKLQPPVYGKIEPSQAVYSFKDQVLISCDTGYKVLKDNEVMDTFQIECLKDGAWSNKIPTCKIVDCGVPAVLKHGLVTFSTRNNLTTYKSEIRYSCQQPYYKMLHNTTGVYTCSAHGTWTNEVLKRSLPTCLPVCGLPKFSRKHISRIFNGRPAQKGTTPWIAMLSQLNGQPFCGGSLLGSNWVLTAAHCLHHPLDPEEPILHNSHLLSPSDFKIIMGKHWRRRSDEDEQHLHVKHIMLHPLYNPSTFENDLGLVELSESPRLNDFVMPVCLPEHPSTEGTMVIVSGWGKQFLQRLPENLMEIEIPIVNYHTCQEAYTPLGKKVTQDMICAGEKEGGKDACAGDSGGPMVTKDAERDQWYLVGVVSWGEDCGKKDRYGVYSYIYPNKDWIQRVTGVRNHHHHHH
Nature of the test: cell-based or functional assay.

Numbered stars: 1 amine (or outer) side, 2 acyl side, 3 side chain; on linkers, the order of the positions; unused ones are H or OH. Bridge positions count the residues as written; N and C are the ends. Square brackets hold non-standard residues; d marks the D form. Primed or numbered codes have the meaning given here. Ends that are not written are not given here. Leu(4-F)″ = 4-fluoro-L-leucine, CC(C)(F)C[C@H](N[*:1])C(=O)[*:2]; Oic = O=C(O)[C@@H]1C[C@@H]2CCCC[C@@H]2N1; Phe(2-Cl) = N[C@@H](Cc1ccccc1Cl)C(=O)O; Nva(3-Et) = CCC(CC)[C@H](N)C(=O)O; tBuAla = CC(C)(C)C[C@H](N)C(=O)O; Chg = N[C@H](C(=O)O)C1CCCCC1; NMeC = CN[C@@H](CS)C(=O)O; Orn = NCCC[C@H](N)C(=O)O; Nva = CCC[C@H](N)C(=O)O; Abu = CC[C@H](N)C(=O)O; Sar = CNCC(=O)O

B1: Example 234: AIC+SRS-((tBu)A)-P-(Oic)-I-C+IPD-NH2 (peptide)
peptide: AICSRS[tBuAla]P[Oic]ICIPD-NH2
modifications: disulfide 3-11; N-terminus assumed
SMILES: CC[C@H](C)[C@H](NC(=O)[C@H](C)N)C(=O)N[C@H]1CSSC[C@@H](C(=O)N[C@H](C(=O)N2CCC[C@H]2C(=O)N[C@@H](CC(=O)O)C(N)=O)[C@@H](C)CC)NC(=O)[C@H]([C@@H](C)CC)NC(=O)[C@@H]2C[C@@H]3CCCC[C@@H]3N2C(=O)[C@@H]2CCCN2C(=O)[C@H](CC(C)(C)C)NC(=O)[C@H](CO)NC(=O)[C@H](CCCNC(=N)N)NC(=O)[C@H](CO)NC1=O
As for B1, the “rat MASP1 IC50” value was 78 nM.

For [Sar]ICSRSLPPICIPD-NH2 (disulfide 3-11; also: HCl salt) [Example 228: ((N-Me)G)-IC+SRSLPPIC+IPD-NH2 (HCl salt)], the “rat MASP1 IC50” value is 260 nM.

B2: Example 210: AIC+SRS-((tBu)A)-PPIC+IDD-OH (peptide)
peptide: AICSRS[tBuAla]PPICIDD-OH
modifications: disulfide 3-11; N-terminus assumed
SMILES: CC[C@H](C)[C@H](NC(=O)[C@H](C)N)C(=O)N[C@H]1CSSC[C@@H](C(=O)N[C@H](C(=O)N[C@@H](CC(=O)O)C(=O)N[C@@H](CC(=O)O)C(=O)O)[C@@H](C)CC)NC(=O)[C@H]([C@@H](C)CC)NC(=O)[C@@H]2CCCN2C(=O)[C@@H]2CCCN2C(=O)[C@H](CC(C)(C)C)NC(=O)[C@H](CO)NC(=O)[C@H](CCCNC(=N)N)NC(=O)[C@H](CO)NC1=O
Turning to B2, the “rat MASP1 IC50” value was found to be 19 nM.

B3: Example 216: (Nva)-IC+SRSLPPIC+IPD-NH2 (peptide)
peptide: [Nva]ICSRSLPPICIPD-NH2
modifications: disulfide 3-11; N-terminus assumed
SMILES: CCC[C@H](N)C(=O)N[C@H](C(=O)N[C@H]1CSSC[C@@H](C(=O)N[C@H](C(=O)N2CCC[C@H]2C(=O)N[C@@H](CC(=O)O)C(N)=O)[C@@H](C)CC)NC(=O)[C@H]([C@@H](C)CC)NC(=O)[C@@H]2CCCN2C(=O)[C@@H]2CCCN2C(=O)[C@H](CC(C)C)NC(=O)[C@H](CO)NC(=O)[C@H](CCCNC(=N)N)NC(=O)[C@H](CO)NC1=O)[C@@H](C)CC
Turning to B3, the “rat MASP1 IC50” value was 240 nM.

B4: Example 230: (Abu)-IC+SRSLPPIC+IPD-NH2 (peptide)
peptide: [Abu]ICSRSLPPICIPD-NH2
modifications: disulfide 3-11; N-terminus assumed
SMILES: CC[C@H](N)C(=O)N[C@H](C(=O)N[C@H]1CSSC[C@@H](C(=O)N[C@H](C(=O)N2CCC[C@H]2C(=O)N[C@@H](CC(=O)O)C(N)=O)[C@@H](C)CC)NC(=O)[C@H]([C@@H](C)CC)NC(=O)[C@@H]2CCCN2C(=O)[C@@H]2CCCN2C(=O)[C@H](CC(C)C)NC(=O)[C@H](CO)NC(=O)[C@H](CCCNC(=N)N)NC(=O)[C@H](CO)NC1=O)[C@@H](C)CC
For the molecule B4, the “rat MASP1 IC50” value came to 370 nM.

B5: Example 222: AIC+SRSLPP-(Chg)-C+IPD-OH (peptide)
peptide: AICSRSLPP[Chg]CIPD-OH
modifications: disulfide 3-11; N-terminus assumed
SMILES: CC[C@H](C)[C@H](NC(=O)[C@H](C)N)C(=O)N[C@H]1CSSC[C@@H](C(=O)N[C@H](C(=O)N2CCC[C@H]2C(=O)N[C@@H](CC(=O)O)C(=O)O)[C@@H](C)CC)NC(=O)[C@H](C2CCCCC2)NC(=O)[C@@H]2CCCN2C(=O)[C@@H]2CCCN2C(=O)[C@H](CC(C)C)NC(=O)[C@H](CO)NC(=O)[C@H](CCCNC(=N)N)NC(=O)[C@H](CO)NC1=O
For B5, the “rat MASP1 IC50” value stood at 240 nM.

B6: Example 238: AIC+SRS-((2-Chloro)F)-PPI-((N-Me)C)+IPD-NH2 (peptide)
peptide: AICSRS[Phe(2-Cl)]PPI[NMeC]IPD-NH2
modifications: disulfide 3-11; N-terminus assumed
SMILES: CC[C@H](C)[C@H](NC(=O)[C@H](C)N)C(=O)N[C@H]1CSSC[C@@H](C(=O)N[C@H](C(=O)N2CCC[C@H]2C(=O)N[C@@H](CC(=O)O)C(N)=O)[C@@H](C)CC)N(C)C(=O)[C@H]([C@@H](C)CC)NC(=O)[C@@H]2CCCN2C(=O)[C@@H]2CCCN2C(=O)[C@H](Cc2ccccc2Cl)NC(=O)[C@H](CO)NC(=O)[C@H](CCCNC(=N)N)NC(=O)[C@H](CO)NC1=O
As to B6, the “rat MASP1 IC50” value is 150 nM.

B7: Example 209: AIC+SRSLPP-((S)-2-amino-3-ethyl-pentanoic acid)-C+IPD-NH2 (peptide)
peptide: AICSRSLPP[Nva(3-Et)]CIPD-NH2
modifications: disulfide 3-11; N-terminus assumed
SMILES: CCC(CC)[C@@H]1NC(=O)[C@@H]2CCCN2C(=O)[C@@H]2CCCN2C(=O)[C@H](CC(C)C)NC(=O)[C@H](CO)NC(=O)[C@H](CCCNC(=N)N)NC(=O)[C@H](CO)NC(=O)[C@@H](NC(=O)[C@@H](NC(=O)[C@H](C)N)[C@@H](C)CC)CSSC[C@@H](C(=O)N[C@H](C(=O)N2CCC[C@H]2C(=O)N[C@@H](CC(=O)O)C(N)=O)[C@@H](C)CC)NC1=O
Turning to B7, the “rat MASP1 IC50” value is 330 nM.

B8: Example 225: (Orn)-IC+SRSLPP-(Chg)-C+IPD-OH (peptide)
peptide: [Orn]ICSRSLPP[Chg]CIPD-OH
modifications: disulfide 3-11; N-terminus assumed
SMILES: CC[C@H](C)[C@H](NC(=O)[C@@H](N)CCCN)C(=O)N[C@H]1CSSC[C@@H](C(=O)N[C@H](C(=O)N2CCC[C@H]2C(=O)N[C@@H](CC(=O)O)C(=O)O)[C@@H](C)CC)NC(=O)[C@H](C2CCCCC2)NC(=O)[C@@H]2CCCN2C(=O)[C@@H]2CCCN2C(=O)[C@H](CC(C)C)NC(=O)[C@H](CO)NC(=O)[C@H](CCCNC(=N)N)NC(=O)[C@H](CO)NC1=O
As to B8, the “rat MASP1 IC50” value is 230 nM.

B9: Example 236: (Orn)-IC+SRSLPPIC+I-NH2 (peptide)
peptide: [Orn]ICSRSLPPICI-NH2
modifications: disulfide 3-11; N-terminus assumed
SMILES: CC[C@H](C)[C@H](NC(=O)[C@@H]1CSSC[C@H](NC(=O)[C@@H](NC(=O)[C@@H](N)CCCN)[C@@H](C)CC)C(=O)N[C@@H](CO)C(=O)N[C@@H](CCCNC(=N)N)C(=O)N[C@@H](CO)C(=O)N[C@@H](CC(C)C)C(=O)N2CCC[C@H]2C(=O)N2CCC[C@H]2C(=O)N[C@@H]([C@@H](C)CC)C(=O)N1)C(N)=O
Take B9: the “rat MASP1 IC50” value stood at 890 nM.

B10: Example 247: AIC+SRSLPP-(Chg)-C+I-NH2 (peptide)
peptide: AICSRSLPP[Chg]CI-NH2
modifications: disulfide 3-11; N-terminus assumed
SMILES: CC[C@H](C)[C@H](NC(=O)[C@@H]1CSSC[C@H](NC(=O)[C@@H](NC(=O)[C@H](C)N)[C@@H](C)CC)C(=O)N[C@@H](CO)C(=O)N[C@@H](CCCNC(=N)N)C(=O)N[C@@H](CO)C(=O)N[C@@H](CC(C)C)C(=O)N2CCC[C@H]2C(=O)N2CCC[C@H]2C(=O)N[C@@H](C2CCCCC2)C(=O)N1)C(N)=O
For the molecule B10, the “rat MASP1 IC50” value came to 700 nM.

B11: Example 248: AIC+SRS-((4-Fluoro)L)-PPIC+IPD-NH2 (peptide)
peptide: AICSRS[Leu(4-F)″]PPICIPD-NH2
modifications: disulfide 3-11; N-terminus assumed
SMILES: CC[C@H](C)[C@H](NC(=O)[C@H](C)N)C(=O)N[C@H]1CSSC[C@@H](C(=O)N[C@H](C(=O)N2CCC[C@H]2C(=O)N[C@@H](CC(=O)O)C(N)=O)[C@@H](C)CC)NC(=O)[C@H]([C@@H](C)CC)NC(=O)[C@@H]2CCCN2C(=O)[C@@H]2CCCN2C(=O)[C@H](CC(C)(C)F)NC(=O)[C@H](CO)NC(=O)[C@H](CCCNC(=N)N)NC(=O)[C@H](CO)NC1=O
For B11, the “rat MASP1 IC50” value stood at 260 nM.

B12: Example 231: AIC+SRS-((tBu)A)-P-(Oic)-I-((N-Me)C)+IPD-OH (peptide)
peptide: AICSRS[tBuAla]P[Oic]I[NMeC]IPD-OH
modifications: disulfide 3-11; N-terminus assumed
SMILES: CC[C@H](C)[C@H](NC(=O)[C@H](C)N)C(=O)N[C@H]1CSSC[C@@H](C(=O)N[C@H](C(=O)N2CCC[C@H]2C(=O)N[C@@H](CC(=O)O)C(=O)O)[C@@H](C)CC)N(C)C(=O)[C@H]([C@@H](C)CC)NC(=O)[C@@H]2C[C@@H]3CCCC[C@@H]3N2C(=O)[C@@H]2CCCN2C(=O)[C@H](CC(C)(C)C)NC(=O)[C@H](CO)NC(=O)[C@H](CCCNC(=N)N)NC(=O)[C@H](CO)NC1=O
For the molecule B12, the “rat MASP1 IC50” value worked out at 38 nM.

On to [(N,N-diMe)A]ICSRS[tBuAla]PPICIPD-NH2 (disulfide 3-11) [Example 243: ((N,N-diMe)A)-IC+SRS-((tBu)A)-PPIC+IPD-NH2], for which the “rat MASP1 IC50” value stood at 140 nM.

B13: Example 223: WIC+SRS-((tBu)A)-PPI-((N-Me)C)+I-NH2 (peptide)
peptide: WICSRS[tBuAla]PPI[NMeC]I-NH2
modifications: disulfide 3-11; N-terminus assumed
SMILES: CC[C@H](C)[C@H](NC(=O)[C@@H]1CSSC[C@H](NC(=O)[C@@H](NC(=O)[C@@H](N)Cc2c[nH]c3ccccc23)[C@@H](C)CC)C(=O)N[C@@H](CO)C(=O)N[C@@H](CCCNC(=N)N)C(=O)N[C@@H](CO)C(=O)N[C@@H](CC(C)(C)C)C(=O)N2CCC[C@H]2C(=O)N2CCC[C@H]2C(=O)N[C@@H]([C@@H](C)CC)C(=O)N1C)C(N)=O
On to B13, for which the “rat MASP1 IC50” value was 120 nM.

B14: Example 246: ((N-Me)G)-IC+SRS-((tBu)A)-PPIC+IPD-OH (peptide)
peptide: [Sar]ICSRS[tBuAla]PPICIPD-OH
modifications: disulfide 3-11; N-terminus assumed
SMILES: CC[C@H](C)[C@H](NC(=O)CNC)C(=O)N[C@H]1CSSC[C@@H](C(=O)N[C@H](C(=O)N2CCC[C@H]2C(=O)N[C@@H](CC(=O)O)C(=O)O)[C@@H](C)CC)NC(=O)[C@H]([C@@H](C)CC)NC(=O)[C@@H]2CCCN2C(=O)[C@@H]2CCCN2C(=O)[C@H](CC(C)(C)C)NC(=O)[C@H](CO)NC(=O)[C@H](CCCNC(=N)N)NC(=O)[C@H](CO)NC1=O
With B14, the “rat MASP1 IC50” value turned out to be 78 nM.

As to AICSRSL[(4aR,6aR,9S,11aS)‑11‑Oxo‑2,3,4,4a,6a,7,8,9,11,11a‑decahydro‑1H‑pyrido(3,2-e)pyrrolo(1,2-a)azepine‑9‑carboxylic acid]ICIPD-NH2 (disulfide 3-10), the “rat MASP1 IC50” value came to 130 nM.
